The values that follow come from patent publication US20210346432A1 (Memorial Sloan Kettering, published 2021).

The chains are these.
B1: BCMA-targeted 28z CAR24 (other)
chain: SYELTQPPSASGTPGQRVTMSCSGTSSNIGSHSVNWYQQLPGTAPKLLIYTNNQRPSGVPDRFSGSKSGTSASLAISGLQSEDEADYYCAAWDGSLNGLVFGGGTKLTVLGSRGGGGSGGGGSGGGGSLEMAEVQLVQSGAEVKKPGESLKISCKGSGYSFTSYWIGWVRQMPGKGLEWMGIIYPGDSDTRYSPSFQGHVTISADKSISTAYLQWSSLKASDTAMYYCARYSGSFDNWGQGTLVTVSSIEVMYPPPYLDNEKSNGTIIHVKGKHLCPSPLFPGPSKPFWVLVVVGGVLACYSLLVTVAFIIFWVRSKRSRLLHSDYMNMTPRRPGPTRKHYQPYAPPRDFAAYRSRVKFSRSADAPAYQQGQNQLYNELNLGRREEYDVLDKRRGRDPEMGGKPRRKNPQEGLYNELQKDKMAEAYSEIGMKGERRRGKGHDGLYQGLSTATKDTYDALHMQALPPR
notes: Chimeric antigen receptor on transduced human T cells; leader left out; also called BCMA-specific 28z CAR24
B2: ET140-174 (scFv)
scFv: SYELTQPPSASGTPGQRVTMSCSGTSSNIGSHSVNWYQQLPGTAPKLLIYTNNQRPSGVPDRFSGSKSGTSASLAISGLQSEDEADYYCAAWDGSLNGLVFGGGTKLTVLGSRGGGGSGGGGSGGGGSLEMAEVQLVQSGAEVKKPGESLKISCKGSGYSFTSYWIGWVRQMPGKGLEWMGIIYPGDSDTRYSPSFQGHVTISADKSISTAYLQWSSLKASDTAMYYCARYSGSFDNWGQGTLVTVSS
notes: also called ET140-174 scFv; ET140-24 scFv
B3: ET140-207 (scFv)
scFv: QPVLTQPPSASASLGASVTLTCTLSSGYSNYKVDWYQQRPGKGPRFLMRVDTGGIVGSKGDGIPDRFSVSGSGLNRYLTIKNIQEEDESDYHCGADHGSGSNFVWVFGGGTKLTVLGSRGGGGSGGGGSGGGGSLEMAQVQLVQSGAEVKKPGSSVKVSCKASGGTFSSYAISWVRQAPGQGLEWMGGIIPIFSTANYAQKFQGRVTMTTDTSTSTAYMELRSLRSDDTAVYYCARQPWTWYSPYDQWGQGTLVTVSS
notes: also called ET140-207 scFv; ET140-57 scFv
B4: ET140-201 (scFv)
scFv: QPVLTQPPSASASLGASVTLTCTLSSGYSNYKVDWYQQRPGKGPRFVMRVGTGGIVGSKGDGIPDRFSVLGSGLNRYLTIKNIQEEDEGDYHCGADHGSGSNFVYVFGTGTKVTVLGSRGGGGSGGGGSGGGGSLEMAQVQLQESGPGLVKPSGTLSLTCGVSGGSISNSNWWSWVRQPPGKGLEWIGEIYHSGSTKYNPSLRSRVTISVDKSKNQFSLKLSSVTAADTAVYYCARRDNWKTPTTKIDGFDIWGQGTMVTVSS
notes: also called ET140-201 scFv; ET140-51 scFv
B5: ET140-204 (scFv)
scFv: QSALTQPASVSASPGQSIAISCTGTSSDVGWYQQHPGKAPKLMIYEDSKRPSGVSNRFSGSKSGNTASLTISGLQAEDEADYYCSSNTRSSTLVFGGGTKLTVLGSRGGGGSGGGGSGGGGSLEMAEVQLVQSGAEMKKPGASLKLSCKASGYTFIDYYVYWMRQAPGQGLESMGWINPNSGGTNYAQKFQGRVTMTRDTSISTAYMELSRLRSDDTAMYYCARSQRDGYMDYWGQGTLVTVSS
notes: also called ET140-204 scFv; ET140-54 scFv
B6: ET140-196 (scFv)
scFv: QAVLTQPPSASGTPGQRVTISCSGSSSNIGSYTVSWYQQLPGTAPKFLIYSNNQRPSGVPDRFSGSKSGTSASLAISGLQSEDEADYYCAAWDDSLNGYVFGTGTKVTVLGSRGGGGSGGGGSGGGGSLEMAEVQLVQSGAEVKKPGESLKISCKGSGYDFTTYWIGWVRQMPGKGLEWMGIIYPGDSDTRYSPSVRGRVTISADKSINTAYLQWSSLEASDTAMYYCARMWTFSQDGWGQGTLVTVSS
notes: also called ET140-196 scFv; ET140-46 scFv
B7: ET140-188 (scFv)
scFv: SYVLTQPPSASGTPGQRVTISCSGSSSNIGSNTVNWYQQVPGTAPKLLIYSNNQRPSGVPDRFSGSKSGASASLAISWLQSEDEADYYCAAWDDSLNGWVFGGGTKLTVLGSRGGGGSGGGGSGGGGSLEMAQMQLVQSGAEVKKPGASVKVSCKASGYTFTGYYVHWLRQAPGQGLEWMGWINPNSGGTNNAQEFQGRITMTRDTSINTAYMELSRLRSDDTAVYYCARSQWGGTYDYWGQGTLVTVSS
notes: also called ET140-188 scFv; ET140-38 scFv
B8: ET140-172 (scFv)
scFv: QSVVTQPPSVSGAPGQRVTISCSGSSSNIGARYDVQWYQQLPGTAPKLLIFGNNNRPSGVPDRFSGSKSGTSASLAITGLQAEDEADYYCQSYDSSLSASVFGGGTKLTVLGSRGGGGSGGGGSGGGGSLEMAEVQLVQSGAEVKKPGASVKVSCKASGYTFTSYYMHWVRQAPGQGLEWMGIINPSGGSTSYAQKFQGRVTMTRDTSTSTVYMELSSLRSEDTAVYYCARSQWGGVLDYWGQGTLVTVSS
notes: also called ET140-172 scFv; ET140-22 scFv

The first experiment concerns the target T1, A647 conjugated BCMA-Fc fusion protein (human, UniProt Q02223 1-54, A647 conjugated (site not stated)).
T1 construct: Staining reagent for CAR on T cells; not shown: Fc part
T1 sequence: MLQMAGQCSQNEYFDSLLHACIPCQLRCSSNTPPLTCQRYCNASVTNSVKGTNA
As to the kind of experiment: flow cytometry, A647 conjugated BCMA-Fc on CAR-transduced human T cells. The protocol:
Human T cells (unselected (CD4 and CD8) human T cells from a healthy donor) were transduced with retrovirus in order to express each of these BCMA-targeted CARs such that the T cells expressed these BCMA-targeted 28z CARs. The cell surface expression of BCMA-targeted CARs on human T cells was determined via binding A647 conjugated BCMA-Fc fusion protein.
(In flow cytometry, cells or beads pass a laser one at a time.)
B1: the binding result is reported as “binds”.

The target in another experiment is T2, mouse BCMA (mouse, UniProt O88472 1-49, limits assumed).
T2 chain (looked up): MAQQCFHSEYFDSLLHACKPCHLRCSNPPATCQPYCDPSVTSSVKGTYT
Put plainly: ELISA (OD450), single point, coats human BCMA, mouse BCMA, blank. In general terms: ELISA stands for enzyme-linked immunosorbent assay.
On to B2, for which the binding result is recorded as “no binding”.
The same measure, in the same setting: the entry for B3 is “no binding”; for B4 it is “no binding”.
Consider B5, for which the binding result is reported as “no binding”.
Consider B6, for which the binding result is reported as “no binding”.
Regarding B7, the binding result is “no binding”.
On the same count and under the same terms, the entry for B8 is “no binding”.
